The target in one assay is T1, Pep14 (human, N-terminal biotin).
T1 construct: Synthetic 20-mer of human IL-33
T1 peptide: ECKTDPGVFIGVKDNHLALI
The experiment in a line: ELISA, biotinylated peptide on streptavidin plate. How it is done:
(§1) To determine the binding activity of antibody to each polypeptide fragment, the ELISA plate was pre-coated by biotin-avidin (SA) which was diluted in coating solution (50 mM carbonate coating buffer, pH 9.6) to 2 μg/ml at 4° C. overnight. The plate was washed with PBST for 3 times, and then blocked with 2% BSA prepared in PBS at room temperature for 2 h with 200 μL/well. The plate was washed once with PBST, and 864F3 and 874F7 with final concentrations of 10 μg/mL were added at 100 μL/well, respectively, and the plate was incubated at room temperature for 1 h. The plate was washed with PBST for 3 times, and the goat anti-mouse IgG labeled by HRP was added and placed at 37° C. for 30 min. After washing the plate with PBST for 3 times, the plate was patted on the absorbent paper to remove residual droplets as far as possible. 100 μl TMB developing solution was added to each well, and the plate was placed at room temperature (20±5° C.) for 5 minutes away from light; 50 μl 2M H₂SO₄ terminating solution was added to each well to terminate the substrate reaction. OD values were read at 450 nm on the microplate reader to analyze the binding ability of the antibody to each polypeptide fragment. The experimental results are shown in […]
On the technique in general: ELISA stands for enzyme-linked immunosorbent assay.

The target of another assay is T2, Pep7 (human, N-terminal biotin).
T2 construct: Synthetic 20-mer of human IL-33
T2 peptide: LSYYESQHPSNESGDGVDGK
The experiment in a line: ELISA, biotinylated peptide on streptavidin plate. As for the experimental part:
as §1

A further assay deals with T3, Pep13 (human, N-terminal biotin).
T3 construct: Synthetic 20-mer of human IL-33
T3 peptide: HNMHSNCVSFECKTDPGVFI
The experiment in a line: ELISA, biotinylated peptide on streptavidin plate. As for the experimental part:
as §1

The target of another assay is T4, Pep9 (human, N-terminal biotin).
T4 construct: Synthetic 20-mer of human IL-33
T4 peptide: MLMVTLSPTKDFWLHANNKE
As to the kind of experiment: ELISA, biotinylated peptide on streptavidin plate. How it is done: as §1

The next assay has as its target T5, Pep8 (human, N-terminal biotin).
T5 construct: Synthetic 20-mer of human IL-33
T5 peptide: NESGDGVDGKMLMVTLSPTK
The experiment in a line: ELISA, biotinylated peptide on streptavidin plate. As for the experimental part:
as §1

The target of another assay is T6, Pep15 (human, N-terminal biotin).
T6 construct: Synthetic 20-mer of human IL-33
T6 peptide: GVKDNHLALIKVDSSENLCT
The experiment in a line: ELISA, biotinylated peptide on streptavidin plate. How it is done:
as §1

The target in a further assay is T7, Pep10 (human, N-terminal biotin).
T7 construct: Synthetic 20-mer of human IL-33
T7 peptide: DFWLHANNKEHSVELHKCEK
The experiment in a line: ELISA, biotinylated peptide on streptavidin plate. How it is done:
as §1

A further assay deals with T8, Pep4 (human, N-terminal biotin).
T8 construct: Synthetic 20-mer of human IL-33
T8 peptide: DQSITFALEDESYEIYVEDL
The experiment in a line: ELISA, biotinylated peptide on streptavidin plate. How it is done: as §1

For another assay, the target named is T9, Pep11 (human, N-terminal biotin).
T9 construct: Synthetic 20-mer of human IL-33
T9 peptide: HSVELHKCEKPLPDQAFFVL
As to the kind of experiment: ELISA, biotinylated peptide on streptavidin plate. How it is done:
as §1

Another assay addresses T10, Pep16 (human, N-terminal biotin).
T10 construct: Synthetic 20-mer of human IL-33
T10 peptide: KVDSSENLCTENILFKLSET
The experiment in a line: ELISA, biotinylated peptide on streptavidin plate. How it is done:
as §1

The target in the next assay is T11, Pep1 (human, N-terminal biotin).
T11 construct: Synthetic 20-mer of human IL-33
T11 peptide: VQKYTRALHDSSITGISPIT
The experiment in a line: ELISA, biotinylated peptide on streptavidin plate. As for the experimental part:
as §1

A further assay addresses T12, Pep5 (human, N-terminal biotin).
T12 construct: Synthetic 20-mer of human IL-33
T12 peptide: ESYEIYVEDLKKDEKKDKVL
The experiment in a line: ELISA, biotinylated peptide on streptavidin plate. How it is done: as §1

Another assay deals with T13, Pep3 (human, N-terminal biotin).
T13 construct: Synthetic 20-mer of human IL-33
T13 peptide: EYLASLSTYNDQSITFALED
The experiment in a line: ELISA, biotinylated peptide on streptavidin plate. As for the experimental part:
as §1

A further assay has as its target T14, Pep12 (human, N-terminal biotin).
T14 construct: Synthetic 20-mer of human IL-33
T14 peptide: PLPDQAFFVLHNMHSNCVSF
As to the kind of experiment: ELISA, biotinylated peptide on streptavidin plate. As for the experimental part: as §1

Assay [1] addresses T15, IL-33 protein without any mutation (WT) (human, UniProt O95760 112-270).
T15 construct: Control of the alanine scan (four runs WT-1 to WT-4); also called WT-1; WT-2
T15 sequence: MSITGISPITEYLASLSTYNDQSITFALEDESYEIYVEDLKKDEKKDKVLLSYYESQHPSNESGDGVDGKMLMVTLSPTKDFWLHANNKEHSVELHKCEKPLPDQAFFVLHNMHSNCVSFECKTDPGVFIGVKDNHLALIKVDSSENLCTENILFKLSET
The experiment in a line: ELISA as Example 9; row WT-2. As for the experimental part:
(§2) SA protein was diluted to 2 μg/mL to coat ELISA plate at 100 μL/well overnight at 4° C. The plate was washed with PBST (PBS containing 0.05% Tween20) for 3 times, and blocked with 2% BSA prepared in PBS at 200 μL/well, at room temperature for 2 h. After the plate was washed twice with PBST, IL-33-his-biotin protein was diluted to 1 μg/mL with 1% BSA prepared in PBST, and was added to ELISA plate at 100 μL/well. The plate was incubated at room temperature for 1 h, and each monoclonal antibody was diluted with 1% BSA prepared in PBST in a 3-fold gradient. The highest concentration of antibody was 10 μg/mL, and the antibody was diluted for 12 gradients. Each diluted monoclonal antibody was added to ELISA wells with 100 μL/well, and the plate was incubated at room temperature for 1 h. Each sample was added to duplicate wells in parallel. The plate was washed with PBST for 3 times, and HRP-anti human IgG Fc secondary antibody prepared with PBST was diluted at an appropriate ratio, and was added to ELISA wells at 100 μL/well. […] Each reaction solution was shaken uniformly and OD450 nm was read on a microplate reader. The data was analyzed and EC₅₀ was calculated.
(§3) Subsequently, according to the experimental method of Example 9, the affinity of the above mutant proteins to 874F7-Hu1 was determined, and IL-33 proteins (WT-1, WT-2, WT-3, and WT-4) without any mutation were set as controls.

Assay [2] addresses T16, IL-33 mutant protein V67A (human, UniProt O95760 112-270).
T16 construct: Prokaryotic expression
T16 chain: T15 sequence with V67A
The experiment in a line: ELISA as Example 9; row V67A against WT-3. As for the experimental part:
as §2, §3

The target in assay [3] is T17, IL-33 mutant protein S63A (human, UniProt O95760 112-270).
T17 construct: Prokaryotic expression
T17 chain: T15 sequence with S63A
The experiment in a line: ELISA as Example 9; row S63A. How it is done: as §2, §3

Substitutions are numbered along the chain they refer to.

B1: 874F7 (antibody, V domains shown)
VH: QVQLKESGPGLVAPSHSLSITCNVSGFSLSKYGVHWIRQIPGRGLDWLGVLRAGGSTGYNSALMSRLSISKDSSKSQVFLKMNDLRTDDTAVYFCVRDHYYYSSYGGFVYWGQGTLVTVSA
VL: DIQMTQSPASQSASLGESVTITCLASQTIGAWLAWYRQQPGKSPQLLIYAATRLADGVPSRFSGSGSGTEFSFKINNLQAEDFVSYYCQQLDSSPYTFGGGTRLEM
notes: Murine hybridoma antibody purified on Protein G; also called murine antibody 874F7
B1: the binding result with Pep14, in the assay with Pep7, with Pep13, with Pep9, with Pep8 and with Pep15 was “no binding (tested: 10 µg/mL)” each time. Further, the binding result with Pep10, with Pep4, with Pep11, with Pep16, with Pep1 and with Pep5 was “no binding (tested: 10 µg/mL)” each time. Further, the binding result with Pep3 and with Pep12 was “no binding (tested: 10 µg/mL)” throughout.

B2: 874F7-Hu1 (antibody, human IgG4 S228P, kappa)
heavy: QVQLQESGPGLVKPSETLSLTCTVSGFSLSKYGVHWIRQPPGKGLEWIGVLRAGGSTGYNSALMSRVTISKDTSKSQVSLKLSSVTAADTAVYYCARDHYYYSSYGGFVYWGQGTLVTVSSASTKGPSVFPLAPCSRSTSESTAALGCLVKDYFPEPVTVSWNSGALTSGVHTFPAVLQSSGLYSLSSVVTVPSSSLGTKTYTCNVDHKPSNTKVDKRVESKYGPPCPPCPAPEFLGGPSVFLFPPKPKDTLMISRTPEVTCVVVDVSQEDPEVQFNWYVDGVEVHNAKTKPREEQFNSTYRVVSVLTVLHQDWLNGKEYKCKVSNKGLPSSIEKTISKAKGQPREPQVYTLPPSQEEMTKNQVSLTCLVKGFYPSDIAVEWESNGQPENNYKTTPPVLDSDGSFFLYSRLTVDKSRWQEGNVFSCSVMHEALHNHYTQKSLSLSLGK
light: DIQMTQSPSSVSASVGDRVTITCLASQTIGAWLAWYQQKPGKSPKLLIYAATRLADGVPSRFSGSGSGTDFTLTISSLQPEDFATYYCQQLDSSPYTFGQGTKVEIKRTVAAPSVFIFPPSDEQLKSGTASVVCLLNNFYPREAKVQWKVDNALQSGNSQESVTEQDSKDSTYSLSSTLTLSKADYEKHKVYACEVTHQGLSSPVTKSFNRGEC
notes: also called 874F7-Hul; humanized antibody 874F7-Hu1
With B2, the EC50 (usually the concentration needed to bring the measured effect to its halfway point) in [1] is 0.13 nM; in [3] it was 0.16 nM. Further, in assay [2], the Affinity decline ratio was determined as 0.6 fold.

The values are drawn from patent US20230399394A1 (SUNSHINE GUOJIAN PHARMACEUTICAL SHANGHAI, published 2023).
